# Results: patent US9394371B2, “Antibody-mediated disruption of quorum sensing in bacteria” (The Scripps Research Institute, priority 2007, dated 2016)
# B1: AP1-15B4: murine anti-AIP1 monoclonal antibody; VH SEQ ID NO: 19, VL SEQ ID NO: 147 (antibody, V domains shown)
# VH: EVHLVESGGDLVKPGGSLKLSCAASGFAFSDFAMSWVRQTPEKRLEWVAIIKSDDSYTYYPDSVRDRFTISRDNARNTLYLQMTSLRSEDTALYYCTKIYDAYFYAMDYWGQGTSVTVSS
# VL: DIVRTQSPLSLSVSLGDQASISCRSSQSLLHSNGNTYLHWYLQKPGQSPKLLIYKVSNRFSGVPDRFSGSGSGTDFTLKISILEAEDLGIYFCSQSTHFPTFGGGTKLEIK
# modifications: Murine
# Key:
# AIP-2 = test: Competition ELISA (free native AIP against hapten-BSA coated plates); type: binding, S. aureus; conditions: AP1 Sups; AP1-BSA coated plates; read-out: AIP2 wt
# AIP-1 = test: as above; type: binding, S. aureus; conditions: AP1 Sups; AP1-BSA coated plates; read-out: AIP1 wt
# S. aureus USA300 = test: Postexposure therapy of lethal systemic MRSA USA300 challenge; type: in vivo, C57BL/6 mice; conditions: 1 mg i.p. 2 hours after infection with at least 1×10^8 S. aureus USA300; n=6; FIG. 12
# Procedure: Mice were treated with AP1-15B4 (1 mg) or control IgG (1 mg) 2 hours after S. aureus injection (1-3×10^8 i.p.). The numbers in parenthesis show survivors per group, p=0.02; n=6 for each group.
# C57BL/6 mice received 1 mg of AP1-15B4 (i.p.), isotype control IgG or PBS 2 hours after they had been infected with at least 1×10^8 S. aureus USA300, an agr I MRSA strain. See Diep et al., Lancet 2006, 367, (9512), 731-739. USA300 is in fact one of the most common community-acquired MRSA (CA-MRSA) strains and represents an increasing threat for civilians and military personnel. Hageman et al., Diagn Microbiol Infect Dis 2008; James et al., Arch Dis Child Fetal Neonatal Ed 2008, 93, (1), F40-4; Tenover et al., J Clin Microbiol 2006, 44, (1), 108-18; Beilman et al., Surg Infect (Larchmt) 2005, 6, (1), 87-92. […] In contrast, only two of the PBS treated control mice (2/6) and 2 of the control IgG treated mice (2/6) survived longer than 24 hours.
# S. aureus RN6390B [1] = test: Static biofilm analysis (crystal violet); type: cell-based; conditions: FIG. 10B
# S. aureus RN6390B [2] = type: cell-based
# AIP-4 = test: Competition ELISA (free native AIP against hapten-BSA coated plates); type: binding, S. aureus; conditions: AP1 Sups; AP1-BSA coated plates; read-out: AIP4 wt
# Procedure: (§1) The optimal concentrations of the AP4-BSA conjugate as well as of each mAb were determined. 96 well ELISA plates were coated with the appropriate amount of AP4-BSA conjugate respectively. The plates were blocked with 4% skim milk, washed and mAbs were added at the predetermined optimal concentration. The plates were washed and free antigen, i.e. the native AIPs 1-4, was added to the wells in a concentration series starting at 100 μM. The plate was incubated for 1 hour at 37° C., thoroughly washed, and goat anti-mouse-horseradish peroxidase (HRP) conjugate (Pierce, Rockford, Ill.) was added. After an incubation period of 1 hour at RT, the plate was thoroughly washed again and the HRP substrate (TMB substrate kit; Pierce) was added, the reaction was allowed to develop for 15 minute and stopped by the addition of 2 M H2SO4. The absorbance at 450 nm was read and the values plotted using GraFit (Erithacus Software Ltd). The free antigen concentration at which the absorbance value is 50% of the maximum absorbance was considered the Kd of the antibody for its antigen.
# as §1, with “For the competition ELISA analysis, the optimal concentrations” for “The optimal concentrations”, “of the AP1-BSA, AP3-BSA, or AP4-BSA conjugate,” for “of the AP4-BSA conjugate”, “or AP4-BSA conjugate, as well” for “the AP4-BSA conjugate as well”, “amount of AP1-BSA, AP3-BSA, or AP4-BSA conjugate” for “amount of AP4-BSA conjugate”, “blocked with 4 v % skim milk,” for “blocked with 4% skim milk,”, “for 15 minutes and stopped” for “for 15 minute and stopped”
molecule,measurement,setting,value
B1,Kd,AIP-2,> 100 µM
same,Kd,AIP-1,~0.8 µM
same,mice surviving through the 48-hour observation period,S. aureus USA300,4 out of 6
same,static biofilm formation,S. aureus RN6390B [1],increase in biofilm formation
same,quorum sensing inhibition of group I strains (α-hemolysin expression),S. aureus RN6390B [2],efficiently inhibit quorum sensing
same,"quorum sensing inhibition, hemolysin expression",S. aureus RN6390B [2],most potent activity
same,Kd,AIP-4,> 100 µM
